Among the data in patent US20230295310A1 (ABCELLERA BIOLOGICS, published 2023) are Kd values, retold here.

In one assay the target is T1, human CD3e/g (human, UniProt P07766 23-126; P09693 23-116).
T1 construct: Bought soluble protein; also called hCD3e/g; human CD3e/g (Acro CDD-C52W4)
The assay can be described thus: SPR (Carterra LSA), mAb on chip. A digest of the protocol:
(§1)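 Purified mAbs amine-coupled (EDC/S-NHS) at 10 μg/mL in 10 mM NaOAc pH 4.25 onto an HC-30M chip, with benchmark and negative-control mAbs; analyte flowed over the array. Double-referenced sensorgrams fitted globally to a 1:1 Langmuir model for ka, kd and KD.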

The next assay has as its target T2, human CD3e/d (human, UniProt P07766 23-126; P04234 22-105).
T2 construct: Bought soluble protein; also called hCD3e/d; human CD3/ed (Sino CT038-H2508H)
Put plainly: SPR (Carterra LSA), mAb on chip. In a few lines:
as §1

Usually Kd stands for a measure of binding affinity in units of concentration. Lower therefore signals tighter binding.

T2 sequence (P07766 23-126, chain 1 of 2): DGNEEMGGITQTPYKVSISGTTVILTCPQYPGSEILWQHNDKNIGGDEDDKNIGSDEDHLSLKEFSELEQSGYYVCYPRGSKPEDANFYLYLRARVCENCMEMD
T2 sequence (P04234 22-105, chain 2 of 2): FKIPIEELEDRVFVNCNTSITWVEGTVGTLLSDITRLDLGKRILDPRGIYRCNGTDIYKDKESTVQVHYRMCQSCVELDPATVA
T1 sequence (P07766 23-126, chain 1 of 2): as the sequence (P07766 23-126, chain 1 of 2) above
T1 sequence (P09693 23-116, chain 2 of 2): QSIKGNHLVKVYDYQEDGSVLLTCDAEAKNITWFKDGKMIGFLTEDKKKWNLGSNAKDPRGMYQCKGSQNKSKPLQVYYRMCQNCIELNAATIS

B1: mAb 72 (antibody, V domains shown)
VH: EVQLVDSGGGLVQPGGSLRLSCAASGFTFSSYWMSWVRQAPGKGLEWVANIKQDGSEKYYVDSVKGRFTISRDNVKNSLSLEMNSLRAEDTALYYCARDESSSWYWYFDLWGRGTLVTVSS
VL: DIQMTQSPSTLSASVGDRVTITCRASQSISKWLAWYQQKPGKAPKLLIYKASSLENGVPSRFSGSGSGTEFTLTISSLQPDDFATYYCQQYSSYSRTFGQGTKVEIK
notes: VH and VL only
For B1, the equilibrium dissociation constant (Kd) with human CD3e/g worked out at 394 nM; in the assay with human CD3e/d, 606 nM.

B2: mAb 78 (antibody, V domains shown)
VH: EVQLVESGGGLVQPGGSLRLSCAASGFTFSSYWMSWVRQAPGKGLEWVANIKQDGSEKYYVDSVKGRFTISRDNAKNSLYLQMNSLRAEDTAVYYCARDNSPSFYWYFDLWGRGTLVTVSS
VL: DIQMTQSPSTLSASVGDRVTITCRASQSLSRWLAWYQQKPGKAPKLLIYKASSLESGVPSRFSGSGSGTEFTLTISSLQPDDFATYYCQQYYTYSRTFGQGTKVEIK
notes: VH and VL only
Regarding B2, the Kd in the assay with human CD3e/g came out at 1260 nM; in the assay with human CD3e/d, 283 nM.

B3: mAb 283 (antibody, V domains shown)
VH: QVHLVQSGAEVKKPGASVRVSCKASGYTFTGYYIHWLRQAPGQGLEWLGWINPNSGGTNYSQKFRGRVTMTRDTSISTAYMELSRLRSDDTAVYYCARDKVWEQQLVGGFDYWGQGTLVTVSS
VL: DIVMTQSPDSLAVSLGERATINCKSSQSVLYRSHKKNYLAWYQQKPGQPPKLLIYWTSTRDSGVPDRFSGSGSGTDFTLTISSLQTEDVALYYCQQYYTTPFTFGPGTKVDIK
notes: VH and VL only
For B3, the Kd with human CD3e/g amounted to 20 nM; with human CD3e/d, 160 nM.

B4: mAb 99 (antibody, V domains shown)
VH: QGQLVESGGGVVQPGRSLRLSCAASGFTFRGFGMHWVRQAPGKGLEWVAIIYYDGKNKYYADSVKGRFTISRDNSKNTLYLQMNSLRAEDTAVYYCAKGGGYNWFDPWGQGTLVTVSS
VL: DIQMTQSPSSLSASVGDRVTITCRASQSISTYLNWYQQKPGKAPKLLIYSASSLQSGVPSRFSGSGSGTDFTLTISNLQPEDFAIYYCQRSYSPPFTFGPGTKLDIR
notes: VH and VL only
Turning to B4, the Kd is 11.6 nM with human CD3e/g and 8.92 nM with human CD3e/d.

B5: mAb 93 (antibody, V domains shown)
VH: QVQLVESGGGVVQPGRSLRLSCAASGFTFRGYGMHWVRQAPGKGLEWVAIIYYNGNNKYYADSVKGRFTISRDNSKNTLYLQMNSLRAEDTAVYYCARGGGYNWFDPWGQGTLVTVSS
VL: DIQMTQSPSSLSASVGDRVTITCRASQSISNYLNWYQQEPGKAPKLLIYTASSLQSGVPSRFSGSGSGTAFTLTISSLQPEDFAIYYCQRSSSPPFTFGPGTKLDIK
notes: VH and VL only
As to B5, the figures for the Kd in the assay with human CD3e/g and in the assay with human CD3e/d were 35.8 nM and 47.8 nM, respectively.

B6: mAb 101 (antibody, V domains shown)
VH: QGQLVESGGGVVQPGRSLRLSCAASGFTFRGFGMHWVRQAPGKGLEWVAIIYYDGKNKYYADSVKGRFTISRDNSKNMLYLQMNSLRAEDTAVYYCAKGGGYNWFDPWGQGTLVTVSS
VL: DIQMTQSPSSLSASVGDRVTITCRASQSISTYLNWYQQKPGKAPKLLIYSASSLQSGVPSRFSGSGSGTDFTLTISNLQPEDFAIYYCQRSYSPPFTFGPGTKLDIR
notes: VH and VL only
As for B6, the Kd with human CD3e/g worked out at 10.9 nM; with human CD3e/d it was 9.06 nM.

B7: mAb 100 (antibody, V domains shown)
VH: QVQLVESGGGVVQPGRSLRLSCVASGFTFRGYGMHWVRQAPGKGLEWVAIIYYDGKNKYYADSVKGRFTISRDNSKNTLYLQMNSLRVEDTALYYCARGGGYNWFDPWGQGTLVTVSS
VL: DIQMTQSPSSLSASVGDRVTITCRASQSISTYLNWYQQKPGKAPKLLIYTASSLQSGVPSRFSGSGSGTVFTLTISSLQPEDFAIYYCQRSYSPPFTFGPGTRLDIK
notes: VH and VL only
For the molecule B7, the values for the Kd in the assay with human CD3e/g and with human CD3e/d were 25.5 nM and 20.5 nM, respectively.

B8: mAb 97 (antibody, V domains shown)
VH: QGQLVESGGGVVQPGRSLRLSCAASGFTFRGYGMHWVRQAPGKGLEWVAIIYYDGKNKYYADSVKGRFTISRDNSKNTLYLQMNNLRVEDTAVYYCARGGGYNWFDPWGQGTLVTVSS
VL: DIQMTQSPSSLSASIGDRVTITCRASQSISNYLNWYQQKPGKAPKLLIYSASSLQSGVPSRFSGSGSGTDFTLTISNLQPEDFAIYYCQRSYSPPFTFGPGTKLDIR
notes: VH and VL only
Regarding B8, the Kd with human CD3e/g is 17.8 nM; in the assay with human CD3e/d, 16.5 nM.

B9: mAb 273 (antibody, V domains shown)
VH: EVQLVESGGGLVQPGESLKLSCTASGFTFSVSAIHWVRQASGKGLEWVGRIRSKANSYATAYVASVKGRFTLSRDDSKNTAYLQMNSLKTEDTAVYYCSSYYFVSGTYYNHWGQGTLVTVSS
VL: DIQMTQSPSSLSASVGDRVTITCRASQGIRYDLGWYQQKPGRAPKRLIHSVSSLQSGVPSRFSGSGSGTEFTLTISSLQPEDFATYYCLQHNVNPCTFGQGTKLEIK
notes: VH and VL only
For the molecule B9, the Kd in the assay with human CD3e/g is 46 nM; with human CD3e/d, 75 nM.

B10: mAb 90 (antibody, V domains shown)
VH: EVQLVESGGGLVQPGGSLKLSCAASGFTFSGSAMHWVRQASGKGLEWVGRIRTKPNSYATSYAASVKDRFTISRDDSKNTAYLQMNSLKTEDTAVYYCIRGELEPWGQGTLVTVSS
VL: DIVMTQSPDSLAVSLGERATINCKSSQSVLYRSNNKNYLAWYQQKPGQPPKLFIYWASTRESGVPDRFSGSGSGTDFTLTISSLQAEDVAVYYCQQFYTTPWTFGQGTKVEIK
notes: VH and VL only
As to B10, the Kd turned out to be 41 nM with human CD3e/g and 33.3 nM with human CD3e/d.

B11: mAb 292 (antibody, V domains shown)
VH: EVQLLESGGGLVQPGGSRRLSCAASGFTFSTYAMSWVRQAPGKGLEWVSVINGRGDDTNYADSVKGRFTISRDNSKNILFLQMNSLRAEDTAVYYCAKKYSYYYYYMDVWGKGTTVTVSS
VL: SYELTQPLSVSVALGQTARITCGGNNIGSKDVHWYQQKPGQAPVLVIYRDSNRPSGIPERFSGSNSGNTATLTISRAQAGDEADYYCQVWDSRTAVFGGGTQLTAL
notes: VH and VL only
B11: the results for the Kd in the assay with human CD3e/g and with human CD3e/d were 47 nM and 91 nM, respectively.

B12: mAb 297 (antibody, V domains shown)
VH: EVQLLESGGGLVQPGGSLRLSCAASGFTFSSYAMNWVRQAPGKGLEWVSIISGGRRDDITYYAASVKGRFTISRDNSKNTLYLQMNSLRAEDTAVYYCAKMYNYYYYYIDVWGKGTTVTVSS
VL: SYELTQPLSVSVALGQTAKITCGGNNIGSKDVHWYQQKPGQAPVLVIYRDSNRPSGIPERFSGSNSGNTATLTISRAQAGDEADYYCQVWDSNTAVFGGGTQLTAL
notes: VH and VL only
With B12, the Kd in the assay with human CD3e/g came out at 18 nM; with human CD3e/d, 66 nM.

B13: mAb 296 (antibody, V domains shown)
VH: EVQLLESGGGLVQPGGSLRLSCAASGFTFSSYAMSWVRQAPGKGLEWVSAISGSGGTTYYTDSVKGRFTISRDNSKNTLYLQMNSLRAEDTAVYYCAKKYSYYYYYMDVWGKGTTVTVSS
VL: SYELTQPLSVSVALGQTARITCGGNNIGSKNVHWYQQKPGQAPVLVIYRDSNRPSGIPERFSGSNSGNTATLTISRAQAGDEADYYCQVWDSSTAVFGGGTQLTAL
notes: VH and VL only
B13: the Kd with human CD3e/g was determined as 180 nM; in the assay with human CD3e/d it was 370 nM.

B14: mAb 303 (antibody, V domains shown)
VH: EVHLLESGGGLVQPGGSLRLSCAASGFTFSSYAMNWVRQAPGKGLEWISIISGGRRSGITYYAASVKGRFTISRDNSKNTLDLQMNSLRAEDTAVYYCAKMYNYYYYYIDVWGKGTTVTVSS
VL: SYELTQPLSVSVALGQTARITCGGNNIGSKDVHWYQQKPGQAPVLVIYRDSNRPSGIPERFSGSNSGNTATLTISRAQAGDEADYYCQVWDSNTAVFGGGTQLTAL
notes: VH and VL only
As for B14, the Kd in the assay with human CD3e/g is 5.5 nM; in the assay with human CD3e/d it was 47 nM.

B15: mAb 276 (antibody, V domains shown)
VH: EVQLVESGGGLVQPGGSLRLSCAASGIPFSTYSMNWVRQAPGKGLEWVSYISGSSRTIYYADSVKGRFTISRDNAKKLLFLQMNSLRDEDTAVYYCAREGDYYDSSGWAYWGQGTLVTVSS
VL: DIQMTQSPSSLSASVGDRVTITCRASQNIYKYLNWYEQKPGRAPKLLIYTTSNLQSGVPSRFSGSGSGTAFTLIISSLQPEDFATYYCQQSYGSPYTFGQGTKLEIK
notes: VH and VL only
As to B15, the Kd was 9.6 nM with human CD3e/g and 15 nM in the assay with human CD3e/d.
